# Measured values as given in PMC9482650, “Quantitative fragmentomics allow affinity mapping of interactomes” (Nature Communications, 2022).
# B1: NOSTRIN, Q8IVI9 (peptide)
# chain: SNAGNTATKA
# B2: DACT1, Q9NYF0 (peptide)
# chain: SGSLKLMTTV
# Molecular target: T1, PDZD7_3, Q9H5P4
# T1 sequence (Q9H5P4 857-944, limits assumed, looked up): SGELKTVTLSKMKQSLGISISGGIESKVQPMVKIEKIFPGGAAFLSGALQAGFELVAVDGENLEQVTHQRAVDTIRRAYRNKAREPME
# Assay: holdup assay
# Parameters: key: below the threshold = too weak to quantify, mostly under pKd 3.1 to 4
# Details: plain residues with an end cap or a label only (N-terminal biotin on a linker: ado-ado)
row,Binder,pKd
1,B1,below the threshold
2,B2,5.22

# Molecular target: T2, SNTA1, Q13424
# T2 sequence (Q13424 82-180, limits assumed, looked up): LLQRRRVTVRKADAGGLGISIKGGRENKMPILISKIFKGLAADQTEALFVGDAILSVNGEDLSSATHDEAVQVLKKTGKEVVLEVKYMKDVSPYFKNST
# Assay: holdup assay
# Parameters: key: below the threshold = too weak to quantify, mostly under pKd 3.1 to 4
# Details: plain residues with an end cap or a label only (N-terminal biotin on a linker: ado-ado)
row,Binder,pKd
1,B1,below the threshold
2,B2,3.49

# Molecular target: SCRIB_1, Q14160
# Sequence (Q14160 718-814): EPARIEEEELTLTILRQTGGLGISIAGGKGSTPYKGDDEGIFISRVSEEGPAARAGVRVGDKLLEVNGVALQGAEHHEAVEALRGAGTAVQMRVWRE
# Assay: holdup assay
# Parameters: key: below the threshold = too weak to quantify, mostly under pKd 3.1 to 4
# Details: plain residues with an end cap or a label only (N-terminal biotin on a linker: ado-ado)
row,Binder,pKd
1,B1,below the threshold
2,B2,3.98

# Molecular target: PARD3_3, Q8TEW0
# Sequence (Q8TEW0 582-685): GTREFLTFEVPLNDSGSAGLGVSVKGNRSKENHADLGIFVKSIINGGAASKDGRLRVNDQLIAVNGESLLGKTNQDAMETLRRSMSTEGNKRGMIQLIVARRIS
# Assay: holdup assay
# Parameters: key: below the threshold = too weak to quantify, mostly under pKd 3.1 to 4
# Details: plain residues with an end cap or a label only (N-terminal biotin on a linker: ado-ado)
row,Binder,pKd
1,B1,below the threshold
2,B2,below the threshold

# Molecular target: ARHGEF12, Q9NZN5-2
# Sequence (Q9NZN5 other isoform, or with tags, fused parts or gaps): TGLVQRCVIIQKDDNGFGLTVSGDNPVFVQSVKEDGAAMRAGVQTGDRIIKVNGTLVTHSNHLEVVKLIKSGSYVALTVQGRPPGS
# Assay: holdup assay
# Parameters: key: below the threshold = too weak to quantify, mostly under pKd 3.1 to 4
# Details: plain residues with an end cap or a label only (N-terminal biotin on a linker: ado-ado)
row,Binder,pKd
1,B1,below the threshold
2,B2,4.62

# Molecular target: TJP1_2, Q07157
# Sequence (Q07157 181-274): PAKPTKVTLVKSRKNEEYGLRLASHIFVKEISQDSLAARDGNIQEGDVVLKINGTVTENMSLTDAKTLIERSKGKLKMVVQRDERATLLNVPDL
# Assay: holdup assay
# Parameters: key: below the threshold = too weak to quantify, mostly under pKd 3.1 to 4
# Details: plain residues with an end cap or a label only (N-terminal biotin on a linker: ado-ado)
row,Binder,pKd
1,B1,below the threshold
2,B2,below the threshold

# Molecular target: DLG2_2, Q15700
# Sequence (Q15700 189-283): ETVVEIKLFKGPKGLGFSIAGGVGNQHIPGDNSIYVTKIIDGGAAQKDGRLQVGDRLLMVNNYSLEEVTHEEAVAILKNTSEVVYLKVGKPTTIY
# Assay: holdup assay
# Parameters: key: below the threshold = too weak to quantify, mostly under pKd 3.1 to 4
# Details: plain residues with an end cap or a label only (N-terminal biotin on a linker: ado-ado)
row,Binder,pKd
1,B1,below the threshold
2,B2,5.24

# Molecular target: CASK, O14936
# Sequence (O14936 487-570): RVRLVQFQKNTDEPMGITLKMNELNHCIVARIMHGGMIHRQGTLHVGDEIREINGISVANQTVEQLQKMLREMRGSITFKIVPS
# Assay: holdup assay
# Parameters: key: below the threshold = too weak to quantify, mostly under pKd 3.1 to 4
# Details: plain residues with an end cap or a label only (N-terminal biotin on a linker: ado-ado)
row,Binder,pKd
1,B1,below the threshold
2,B2,below the threshold

# Molecular target: T3, DVL3, Q92997
# T3 sequence (Q92997 244-331, limits assumed, looked up): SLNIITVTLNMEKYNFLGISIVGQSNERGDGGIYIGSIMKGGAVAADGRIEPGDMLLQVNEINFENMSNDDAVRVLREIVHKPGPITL
# Assay: holdup assay
# Parameters: key: below the threshold = too weak to quantify, mostly under pKd 3.1 to 4
# Details: plain residues with an end cap or a label only (N-terminal biotin on a linker: ado-ado)
row,Binder,pKd
1,B1,below the threshold
2,B2,below the threshold

# Molecular target: MAGI1_2, Q96QZ7
# Sequence (Q96QZ7 456-580): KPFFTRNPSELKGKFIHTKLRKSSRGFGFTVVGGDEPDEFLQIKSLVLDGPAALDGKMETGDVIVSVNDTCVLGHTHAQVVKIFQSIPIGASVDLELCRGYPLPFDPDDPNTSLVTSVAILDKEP
# Assay: holdup assay
# Parameters: key: below the threshold = too weak to quantify, mostly under pKd 3.1 to 4
# Details: plain residues with an end cap or a label only (N-terminal biotin on a linker: ado-ado)
row,Binder,pKd
1,B1,below the threshold
2,B2,5.1

# Molecular target: T4, APBA2_1, Q99767
# T4 sequence (Q99767 563-664, limits assumed, looked up): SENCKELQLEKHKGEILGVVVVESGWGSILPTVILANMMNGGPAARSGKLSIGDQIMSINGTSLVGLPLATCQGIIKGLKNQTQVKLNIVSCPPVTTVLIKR
# Assay: holdup assay
# Parameters: key: below the threshold = too weak to quantify, mostly under pKd 3.1 to 4
# Details: plain residues with an end cap or a label only (N-terminal biotin on a linker: ado-ado)
row,Binder,pKd
1,B1,below the threshold
2,B2,below the threshold

# Molecular target: NHERF4_2, Q86UT5
# Sequence (Q86UT5 220-308): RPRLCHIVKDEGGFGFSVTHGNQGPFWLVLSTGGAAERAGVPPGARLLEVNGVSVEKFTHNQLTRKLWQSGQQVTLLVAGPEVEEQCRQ
# Assay: holdup assay
# Parameters: key: below the threshold = too weak to quantify, mostly under pKd 3.1 to 4
# Details: plain residues with an end cap or a label only (N-terminal biotin on a linker: ado-ado)
row,Binder,pKd
1,B1,below the threshold
2,B2,below the threshold

# Molecular target: T5, SNTG1, Q9NSN8
# T5 sequence (Q9NSN8 52-150, limits assumed, looked up): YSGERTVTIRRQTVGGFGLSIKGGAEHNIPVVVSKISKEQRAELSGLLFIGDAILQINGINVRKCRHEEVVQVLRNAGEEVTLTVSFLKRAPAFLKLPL
# Assay: holdup assay
# Parameters: key: below the threshold = too weak to quantify, mostly under pKd 3.1 to 4
# Details: plain residues with an end cap or a label only (N-terminal biotin on a linker: ado-ado)
row,Binder,pKd
1,B1,below the threshold
2,B2,below the threshold

# Molecular target: T6, NHERF3_3, Q5T2W1
# T6 sequence (Q5T2W1 238-333, limits assumed, looked up): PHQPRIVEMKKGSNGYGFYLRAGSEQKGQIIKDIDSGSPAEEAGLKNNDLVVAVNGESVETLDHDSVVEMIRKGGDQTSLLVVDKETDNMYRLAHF
# Assay: holdup assay
# Parameters: key: below the threshold = too weak to quantify, mostly under pKd 3.1 to 4
# Details: plain residues with an end cap or a label only (N-terminal biotin on a linker: ado-ado)
row,Binder,pKd
1,B1,below the threshold
2,B2,below the threshold

# Molecular target: T7, PARD3B_1, Q8TEW8
# T7 sequence (Q8TEW8 196-299, limits assumed, looked up): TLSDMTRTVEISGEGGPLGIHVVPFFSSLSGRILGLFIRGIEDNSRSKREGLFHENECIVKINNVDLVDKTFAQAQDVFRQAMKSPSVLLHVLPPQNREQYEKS
# Assay: holdup assay
# Parameters: key: below the threshold = too weak to quantify, mostly under pKd 3.1 to 4
# Details: plain residues with an end cap or a label only (N-terminal biotin on a linker: ado-ado)
row,Binder,pKd
1,B1,below the threshold
2,B2,below the threshold

# Molecular target: LIMK2, P53671
# Sequence (P53671 143-248): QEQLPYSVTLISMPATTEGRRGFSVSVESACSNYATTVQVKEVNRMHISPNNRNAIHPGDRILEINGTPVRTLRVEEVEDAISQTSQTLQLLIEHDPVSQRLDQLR
# Assay: holdup assay
# Parameters: key: below the threshold = too weak to quantify, mostly under pKd 3.1 to 4
# Details: plain residues with an end cap or a label only (N-terminal biotin on a linker: ado-ado)
row,Binder,pKd
1,B1,below the threshold
2,B2,below the threshold

# Molecular target: T8, HTRA3, P83110
# T8 sequence (P83110 354-453, limits assumed, looked up): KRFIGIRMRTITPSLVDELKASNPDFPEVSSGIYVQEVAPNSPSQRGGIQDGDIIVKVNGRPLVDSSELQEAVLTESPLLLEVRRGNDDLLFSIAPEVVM
# Assay: holdup assay
# Parameters: key: below the threshold = too weak to quantify, mostly under pKd 3.1 to 4
# Details: plain residues with an end cap or a label only (N-terminal biotin on a linker: ado-ado)
row,Binder,pKd
1,B1,below the threshold
2,B2,below the threshold

# Molecular target: T9, TJP3_3, O95049
# T9 sequence (O95049 375-456, limits assumed, looked up): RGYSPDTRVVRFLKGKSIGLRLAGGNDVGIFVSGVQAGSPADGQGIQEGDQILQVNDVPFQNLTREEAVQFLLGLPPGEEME
# Assay: holdup assay
# Parameters: key: below the threshold = too weak to quantify, mostly under pKd 3.1 to 4
# Details: plain residues with an end cap or a label only (N-terminal biotin on a linker: ado-ado)
row,Binder,pKd
1,B1,below the threshold
2,B2,below the threshold

# Molecular target: T10, APBA3_1, O96018
# T10 sequence (O96018 389-490, limits assumed, looked up): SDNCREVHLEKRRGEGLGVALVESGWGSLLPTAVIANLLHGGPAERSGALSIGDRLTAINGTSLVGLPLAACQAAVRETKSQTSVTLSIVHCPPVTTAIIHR
# Assay: holdup assay
# Parameters: key: below the threshold = too weak to quantify, mostly under pKd 3.1 to 4
# Details: plain residues with an end cap or a label only (N-terminal biotin on a linker: ado-ado)
row,Binder,pKd
1,B1,below the threshold
2,B2,below the threshold

# Molecular target: T11, DFNB31_2, Q9P202
# T11 sequence (Q9P202 274-371, limits assumed, looked up): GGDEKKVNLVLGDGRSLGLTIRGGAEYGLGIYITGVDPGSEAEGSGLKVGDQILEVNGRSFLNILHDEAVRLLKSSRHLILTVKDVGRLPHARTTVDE
# Assay: holdup assay
# Parameters: key: below the threshold = too weak to quantify, mostly under pKd 3.1 to 4
# Details: plain residues with an end cap or a label only (N-terminal biotin on a linker: ado-ado)
row,Binder,pKd
1,B1,below the threshold
2,B2,below the threshold

# Molecular target: GRIP2_3, Q9C0E4
# Sequence (Q9C0E4 238-339): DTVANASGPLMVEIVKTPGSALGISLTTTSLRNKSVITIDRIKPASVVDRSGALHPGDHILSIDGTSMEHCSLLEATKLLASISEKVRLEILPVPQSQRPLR
# Assay: holdup assay
# Parameters: key: below the threshold = too weak to quantify, mostly under pKd 3.1 to 4
# Details: plain residues with an end cap or a label only (N-terminal biotin on a linker: ado-ado)
row,Binder,pKd
1,B1,below the threshold
2,B2,below the threshold

# Molecular target: GORASP1, Q9BQQ3
# Sequence (Q9BQQ3 1-208): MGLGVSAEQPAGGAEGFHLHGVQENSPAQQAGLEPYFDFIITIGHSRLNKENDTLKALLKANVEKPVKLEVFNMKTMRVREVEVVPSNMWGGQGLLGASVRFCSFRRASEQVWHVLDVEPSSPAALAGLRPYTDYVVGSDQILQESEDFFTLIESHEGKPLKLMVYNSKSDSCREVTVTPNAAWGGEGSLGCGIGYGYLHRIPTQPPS
# Assay: holdup assay
# Parameters: key: below the threshold = too weak to quantify, mostly under pKd 3.1 to 4
# Details: plain residues with an end cap or a label only (N-terminal biotin on a linker: ado-ado)
row,Binder,pKd
1,B1,below the threshold
2,B2,3.56

# Molecular target: GRIP2_7, Q9C0E4
# Sequence (Q9C0E4 934-1023): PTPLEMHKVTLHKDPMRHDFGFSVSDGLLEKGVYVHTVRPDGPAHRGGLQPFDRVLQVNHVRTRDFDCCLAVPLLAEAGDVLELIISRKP
# Assay: holdup assay
# Parameters: key: below the threshold = too weak to quantify, mostly under pKd 3.1 to 4
# Details: plain residues with an end cap or a label only (N-terminal biotin on a linker: ado-ado)
row,Binder,pKd
1,B1,below the threshold
2,B2,below the threshold

# Molecular target: SCRIB_3, Q14160
# Sequence (Q14160 999-1103): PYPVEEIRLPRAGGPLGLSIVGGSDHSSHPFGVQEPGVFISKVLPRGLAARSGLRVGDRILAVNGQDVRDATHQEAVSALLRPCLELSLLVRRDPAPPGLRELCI
# Assay: holdup assay
# Parameters: key: below the threshold = too weak to quantify, mostly under pKd 3.1 to 4
# Details: plain residues with an end cap or a label only (N-terminal biotin on a linker: ado-ado)
row,Binder,pKd
1,B1,below the threshold
2,B2,3.59

# Molecular target: TJP2_1, Q9UDY2
# Sequence (Q9UDY2 24-128): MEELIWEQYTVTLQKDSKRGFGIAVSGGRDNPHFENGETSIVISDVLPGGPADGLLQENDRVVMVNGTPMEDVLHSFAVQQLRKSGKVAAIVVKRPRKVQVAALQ
# Assay: holdup assay
# Parameters: key: below the threshold = too weak to quantify, mostly under pKd 3.1 to 4
# Details: plain residues with an end cap or a label only (N-terminal biotin on a linker: ado-ado)
row,Binder,pKd
1,B1,below the threshold
2,B2,3.58

# Molecular target: T12, SIPA1L2, Q9P2F8
# T12 sequence (Q9P2F8 945-1036, limits assumed, looked up): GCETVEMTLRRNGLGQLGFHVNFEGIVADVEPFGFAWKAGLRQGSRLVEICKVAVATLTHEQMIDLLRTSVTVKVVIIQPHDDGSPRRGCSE
# Assay: holdup assay
# Parameters: key: below the threshold = too weak to quantify, mostly under pKd 3.1 to 4
# Details: plain residues with an end cap or a label only (N-terminal biotin on a linker: ado-ado)
row,Binder,pKd
1,B1,below the threshold
2,B2,below the threshold
